Target: HA-tagged M593A-PTH1R (UniProt Q03431)
Test: radioligand binding

## [125I]-PTH(1-34)NH2 (peptide)
  Total Binding (TB), cells co-transfected with EBP50: 1290
  Total Binding (TB), cells co-transfected with pcDNA3: 1180
